Experimental data from patent US20050222387A1, “Smac-peptides as therapeutics against cancer and autoimmune diseases” (Deutsches Krebsforschungzentrum Stiftung Des Oeffentlichen …, priority 2002, published 2005).

Assay: Neurotoxicity by compound neurological score in the glioblastoma model
Assay type: in vivo, athymic mice
Details: TRAIL alone, local administration
Method: Animal studies. 5×10^4 U87MG human glioblastoma cells were stereotactically implanted into the right striatum of athymic mice (CD1 nu/nu, Charles River, Sulzfeld, Germany). At day 7 or at day 7 and day 9, mice were locally treated with Apo2L/TRAIL (2 μg/4 μl buffer) and/or Smac (1 mg/4 μl buffer) or buffer only. Tumor cell volumes were measured at day 21 or 35 after tumor cell implantation as previously described. Neurological symptoms (alertness, behaviour, weight loss, focal neurological deficits) were evaluated daily and a compound score of all categories was formed (++: severe deficits, +: deficits, −: no relevant deficits). Statistical significance was assessed using ANOVA.

## TRAIL: TNF-related apoptosis inducing ligand, death receptor ligand; recombinant human TRAIL (PeproTech)
  mice that developed neurological deficits: 2 of 6
